# T1: OCT2 DBD (POU domain) (Homo sapiens, UniProt P09086 195-357)
# T1 sequence: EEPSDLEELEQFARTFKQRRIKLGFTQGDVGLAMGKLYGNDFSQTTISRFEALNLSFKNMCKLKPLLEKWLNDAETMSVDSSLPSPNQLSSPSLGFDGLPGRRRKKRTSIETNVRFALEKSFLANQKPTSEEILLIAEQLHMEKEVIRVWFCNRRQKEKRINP
# Experiments:
# [1] = target: the molecule itself; assay: native gel or EMSA; 0.2 kbp DNA fragment with a single MORE site (10 nM) incubated overnight at 25 °C with graded OCT2 DBD (2-fold dilutions from 1 uM) in PBS; 4-20% gradient polyacrylamide gel; dimer assembled on DNA
# OCT2 DBD (POU domain) [2] = target: T1, OCT2 DBD (POU domain); assay: fluorescence anisotropy; 0.30 M Na+, no poly[d(I-C)]; FP: 5 nM probe, 10 mM Bis-Tris pH 6.5, 0.01% BSA, 0.15-0.35 M NaCl, 25 C overnight, Hill fit with nH = 2 (macroscopic KD of dimer); EMSA: 10 nM DNA, PBS, 25 C o; details: protein: recombinant; tags: N-terminal His6 removed by thrombin; chain copies: 2; label: 5'-HEX; blunt; self-complementary, 2 copies of the strand
# OCT2 DBD (POU domain) [3] = target: T1, OCT2 DBD (POU domain); assay: fluorescence anisotropy; 0.175 M Na+, no poly[d(I-C)]; FP: 5 nM probe, 10 mM Bis-Tris pH 6.5, 0.01% BSA, 0.15-0.35 M NaCl, 25 C overnight, Hill fit with nH = 2 (macroscopic KD of dimer); EMSA: 10 nM DNA, PBS, 25 C o; details: protein: recombinant; tags: N-terminal His6 removed by thrombin; chain copies: 2; label: 5'-HEX; blunt; self-complementary, 2 copies of the strand
# OCT2 DBD (POU domain) [4] = target: T1, OCT2 DBD (POU domain); assay: fluorescence anisotropy; 0.25 M Na+, no poly[d(I-C)]; FP: 5 nM probe, 10 mM Bis-Tris pH 6.5, 0.01% BSA, 0.15-0.35 M NaCl, 25 C overnight, Hill fit with nH = 2 (macroscopic KD of dimer); EMSA: 10 nM DNA, PBS, 25 C o; details: protein: recombinant; tags: N-terminal His6 removed by thrombin; chain copies: 2; label: 5'-HEX; blunt; self-complementary, 2 copies of the strand
# OCT2 DBD (POU domain) [5] = target: T1, OCT2 DBD (POU domain); assay: fluorescence anisotropy; 0.35 M Na+, 1 U poly[d(I-C)]; text gives 0.18 +/- 0.06 uM; FP: 5 nM probe, 10 mM Bis-Tris pH 6.5, 0.01% BSA, 0.15-0.35 M NaCl, 25 C overnight, Hill fit with nH = 2 (macroscopic KD of dimer); EMSA: 10 nM DNA, PBS, 25 C o; details: protein: recombinant; tags: N-terminal His6 removed by thrombin; chain copies: 2; label: 5'-HEX; blunt; self-complementary, 2 copies of the strand
# OCT2 DBD (POU domain) [6] = target: T1, OCT2 DBD (POU domain); assay: fluorescence anisotropy; 0.20 M Na+, 1 U poly[d(I-C)]; FP: 5 nM probe, 10 mM Bis-Tris pH 6.5, 0.01% BSA, 0.15-0.35 M NaCl, 25 C overnight, Hill fit with nH = 2 (macroscopic KD of dimer); EMSA: 10 nM DNA, PBS, 25 C o; details: protein: recombinant; tags: N-terminal His6 removed by thrombin; chain copies: 2; label: 5'-HEX; blunt; self-complementary, 2 copies of the strand
# OCT2 DBD (POU domain) [7] = target: T1, OCT2 DBD (POU domain); assay: fluorescence anisotropy; 0.15 M Na+, no poly[d(I-C)]; text gives 3.2 +/- 1.4 nM; FP: 5 nM probe, 10 mM Bis-Tris pH 6.5, 0.01% BSA, 0.15-0.35 M NaCl, 25 C overnight, Hill fit with nH = 2 (macroscopic KD of dimer); EMSA: 10 nM DNA, PBS, 25 C o; details: protein: recombinant; tags: N-terminal His6 removed by thrombin; chain copies: 2; label: 5'-HEX; blunt; self-complementary, 2 copies of the strand
# OCT2 DBD (POU domain) [8] = target: T1, OCT2 DBD (POU domain); assay: fluorescence anisotropy; 0.25 M Na+, 1 U poly[d(I-C)]; FP: 5 nM probe, 10 mM Bis-Tris pH 6.5, 0.01% BSA, 0.15-0.35 M NaCl, 25 C overnight, Hill fit with nH = 2 (macroscopic KD of dimer); EMSA: 10 nM DNA, PBS, 25 C o; details: protein: recombinant; tags: N-terminal His6 removed by thrombin; chain copies: 2; label: 5'-HEX; blunt; self-complementary, 2 copies of the strand
# OCT2 DBD (POU domain) [9] = target: T1, OCT2 DBD (POU domain); assay: fluorescence anisotropy; 0.15 M Na+, 1 U poly[d(I-C)]; FP: 5 nM probe, 10 mM Bis-Tris pH 6.5, 0.01% BSA, 0.15-0.35 M NaCl, 25 C overnight, Hill fit with nH = 2 (macroscopic KD of dimer); EMSA: 10 nM DNA, PBS, 25 C o; details: protein: recombinant; tags: N-terminal His6 removed by thrombin; chain copies: 2; label: 5'-HEX; blunt; self-complementary, 2 copies of the strand
# OCT2 DBD (POU domain) [10] = target: T1, OCT2 DBD (POU domain); assay: fluorescence anisotropy; 0.175 M Na+, 1 U poly[d(I-C)]; FP: 5 nM probe, 10 mM Bis-Tris pH 6.5, 0.01% BSA, 0.15-0.35 M NaCl, 25 C overnight, Hill fit with nH = 2 (macroscopic KD of dimer); EMSA: 10 nM DNA, PBS, 25 C o; details: protein: recombinant; tags: N-terminal His6 removed by thrombin; chain copies: 2; label: 5'-HEX; blunt; self-complementary, 2 copies of the strand
# OCT2 DBD (POU domain) [11] = target: T1, OCT2 DBD (POU domain); assay: fluorescence anisotropy; 0.20 M Na+, no poly[d(I-C)]; FP: 5 nM probe, 10 mM Bis-Tris pH 6.5, 0.01% BSA, 0.15-0.35 M NaCl, 25 C overnight, Hill fit with nH = 2 (macroscopic KD of dimer); EMSA: 10 nM DNA, PBS, 25 C o; details: protein: recombinant; tags: N-terminal His6 removed by thrombin; chain copies: 2; label: 5'-HEX; blunt; self-complementary, 2 copies of the strand
# OCT2 DBD (POU domain) [12] = target: T1, OCT2 DBD (POU domain); assay: fluorescence anisotropy; 0.30 M Na+, 1 U poly[d(I-C)]; FP: 5 nM probe, 10 mM Bis-Tris pH 6.5, 0.01% BSA, 0.15-0.35 M NaCl, 25 C overnight, Hill fit with nH = 2 (macroscopic KD of dimer); EMSA: 10 nM DNA, PBS, 25 C o; details: protein: recombinant; tags: N-terminal His6 removed by thrombin; chain copies: 2; label: 5'-HEX; blunt; self-complementary, 2 copies of the strand
# OCT2 DBD (POU domain) [13] = target: T1, OCT2 DBD (POU domain); assay: fluorescence anisotropy; 0.35 M Na+, no poly[d(I-C)]; FP: 5 nM probe, 10 mM Bis-Tris pH 6.5, 0.01% BSA, 0.15-0.35 M NaCl, 25 C overnight, Hill fit with nH = 2 (macroscopic KD of dimer); EMSA: 10 nM DNA, PBS, 25 C o; details: protein: recombinant; tags: N-terminal His6 removed by thrombin; chain copies: 2; label: 5'-HEX; blunt; self-complementary, 2 copies of the strand
binder,measurement,setting,value
"OCT2 DBD (DNA-binding domain, POU domain, of human POU factor OCT2) (domain or fragment, UniProt P09086 195-357, looked up, Cloned into NdeI/BamHI of pET15b; residues of the vector may be left at the N-terminus after thrombin cleavage (surmised); the linker is not resolved in the structure; also called POU2F2; OCT DBD; source: E. coli BL21(DE3)pLysS, purified (Ni-NTA, thrombin cleavage, Sepharose SP, Superdex 75); not shown: His6, N-terminal, cleaved) EEPSDLEELEQFARTFKQRRIKLGFTQGDVGLAMGKLYGNDFSQTTISRFEALNLSFKNMCKLKPLLEKWLNDAETMSVDSSLPSPNQLSSPSLGFDGLPGRRRKKRTSIETNVRFALEKSFLANQKPTSEEILLIAEQLHMEKEVIRVWFCNRRQKEKRINP",stoichiometry N,[1],2
"MORE 22-bp, HEX-labelled (dsDNA) DNA 1: TCCTCATGCATATGCATGAGGA DNA 2: TCCTCATGCATATGCATGAGGA",Kd,OCT2 DBD (POU domain) [2],560 ± 100 nM
same,Kd,OCT2 DBD (POU domain) [3],9.7 ± 3.7 nM
same,Kd,OCT2 DBD (POU domain) [4],88 ± 18 nM
same,Kd,OCT2 DBD (POU domain) [5],190 ± 60 nM
same,Kd,OCT2 DBD (POU domain) [6],16 ± 7 nM
same,Kd,OCT2 DBD (POU domain) [7],3.8 ± 1.4 nM
same,Kd,OCT2 DBD (POU domain) [8],41 ± 13 nM
same,Kd,OCT2 DBD (POU domain) [9],5.5 ± 1.3 nM
same,Kd,OCT2 DBD (POU domain) [10],11 ± 4 nM
same,Kd,OCT2 DBD (POU domain) [11],29 ± 9 nM
same,Kd,OCT2 DBD (POU domain) [12],71 ± 19 nM
same,Kd,OCT2 DBD (POU domain) [13],1200 ± 300 nM

# Reference: PMC11873960, “Coupled Heterogeneity to Dimeric Site-Specific Binding by the POU-Family Transcription Factor OCT2” (The Journal of Physical Chemistry. B, 2025)
